According to paper PMC4833381:

How the values were obtained:
[1] = target: HCMV gB of HCMV BADrUL131 (infected cells and extracellular virions) (human cytomegalovirus, BADrUL131) (UniProt P06473); assay: co-IP
[2] = target: HCMV UL130 of HCMV BADrUL131 (extracellular virions) (human cytomegalovirus, BADrUL131) (UniProt P16772); assay: co-IP
[3] = target: HCMV gB of HCMV BADrUL131 (infected cells and extracellular virions) (human cytomegalovirus, BADrUL131) (UniProt P06473); assay: co-IP; IP-western, repeat with an additional BADrUL131 virion preparation solubilized in 1% NP-40; IP with anti-gB MAb 15H7; gH signal read beside a linear range of gH/gL lysate (Image Studio, Licor)
[4] = target: HCMV gL of HCMV BADrUL131 (extracellular virions) (human cytomegalovirus, BADrUL131) (UniProt P16832); assay: co-IP
UniProt P16832, sequence (P16832 31-278): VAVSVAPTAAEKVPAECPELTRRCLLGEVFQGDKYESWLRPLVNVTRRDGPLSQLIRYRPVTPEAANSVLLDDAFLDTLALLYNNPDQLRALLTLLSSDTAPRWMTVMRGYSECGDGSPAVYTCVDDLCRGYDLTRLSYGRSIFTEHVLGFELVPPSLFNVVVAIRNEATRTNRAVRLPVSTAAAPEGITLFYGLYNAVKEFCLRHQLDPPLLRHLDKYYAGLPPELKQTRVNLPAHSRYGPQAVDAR

[5] = target: HCMV gB of clinical strain TR (extracellular virions) (human cytomegalovirus, strain TR); assay: co-IP; IP-western: extracellular virions of HCMV clinical strain TR solubilized in 1% NP-40; IP with anti-gB MAb 15H7; gH signal read beside a linear range of gH/gL lysate (Image Studio, Licor)
[6] = target: HCMV glycoprotein gH, strain TR (Ad vector) (human cytomegalovirus, strain TR); assay: co-IP; IP-western: ARPE-19 cells transduced with Ad vectors, 1% NP-40 lysates; IP with anti-gH MAb 14-4b, anti-gB MAbs 9C1, 13H10, 15H7 or anti-FLAG MAb; protein-A agarose; blots for gB, gH, HSV-1 gH or HSV-1 gD; percent against 5% input (ImageJ)
[7] = target: HCMV glycoprotein gH, strain TR (Ad vector) (human cytomegalovirus, strain TR); assay: co-IP; pulse-chase: Ad-transduced ARPE-19 cells labeled 15 min with 35S-methionine/cysteine, chased 60, 120 or 240 min; 1% NP-40 extracts; IP with anti-gH MAb 14-4b; SDS-PAGE under reducing conditions
[8] = target: HCMV glycoprotein gH, strain TR (Ad vector) (human cytomegalovirus, strain TR); assay: co-IP; IP-western: MRC-5 fibroblasts transduced with Ad vectors, 1% NP-40 lysates; IP with anti-gH MAb 14-4b; blot with anti-gB rabbit serum; percent against 5% input
[9] = target: HCMV gB with a C-terminal FLAG epitope tag (Ad vector) (human cytomegalovirus) (UniProt P06473); assay: co-IP; IP-western: ARPE-19 cells transduced with Ad vectors, 1% NP-40 lysates; IP with anti-gH MAb 14-4b, anti-gB MAbs 9C1, 13H10, 15H7 or anti-FLAG MAb; protein-A agarose; blots for gB, gH, HSV-1 gH or HSV-1 gD; percent against 5% input (ImageJ)
[10] = target: HCMV glycoprotein gB, lab strain AD169 (Ad vector) (human cytomegalovirus, strain AD169) (UniProt P06473); assay: as above

For “HCMV UL130 of HCMV BADrUL131 (extracellular virions) (from UniProt P16772) (natural protein)”, which percent of the total co-IP'd with gB [1] is on record?
Its percent of the total co-IP'd with gB is 2.5%.

Which percent of the total gB precipitated with anti-UL130 serum [2] does the source give for “HCMV gB of HCMV BADrUL131 (infected cells and extracellular virions) (from UniProt P06473 32-906) (natural protein)” here?
Its percent of the total gB precipitated with anti-UL130 serum is 1%.

“HCMV gH of HCMV BADrUL131 (infected cells and extracellular virions) (from UniProt P12824 24-743) (natural protein)” was tested. Which percent of the total gH co-IP'd with gB [3] did it give?
The percent of the total gH co-IP'd with gB was 21%.

And the percent of the total gH IP'd with gL antibodies [4]?
Its percent of the total gH IP'd with gL antibodies is 8%.

And the percent of the total gH/gL co-IP'd with gB [1]?
Its percent of the total gH/gL co-IP'd with gB is 50%.

And the percent of the total gH/gL precipitated with anti-UL130 serum [2]?
Its percent of the total gH/gL precipitated with anti-UL130 serum is 24%.

Which percent of the total gH co-IP'd with gB [5] does the source give for “HCMV gH of clinical strain TR (extracellular virions) (natural protein)” here?
Its percent of the total gH co-IP'd with gB is 16%.

How did the percent of the total co-IP'd with gB [1] turn out when “HCMV gO of HCMV BADrUL131 (extracellular virions) (from UniProt P16750 31-466) (natural protein)” was run?
The percent of the total co-IP'd with gB was 1%.

For “HCMV glycoprotein gB, lab strain AD169 (Ad vector) (from UniProt P06473 32-906) (natural protein)”, which percent of the total gB co-IP'd with gH/gL [6] is on record?
The percent of the total gB co-IP'd with gH/gL was 16.5%.

And the gB complexed with gH/gL, percent of the gH/gL precipitated (pulse sample) [7]?
The gB complexed with gH/gL, percent of the gH/gL precipitated (pulse sample) was 38%.

And the percent of the total gB co-IP'd with gH/gL [8]?
Its percent of the total gB co-IP'd with gH/gL is 13%.

“HCMV glycoprotein gH, strain TR (Ad vector) (natural protein)” was tested. Which percent of gH/gL co-IP'd with gB MAbs or anti-FLAG MAbs [9] did it give?
Its percent of gH/gL co-IP'd with gB MAbs or anti-FLAG MAbs is 1 to 6%.

What about the percent of gH/gL co-IP'd with gB MAbs or anti-FLAG MAbs [10] of the same substance?
The percent of gH/gL co-IP'd with gB MAbs or anti-FLAG MAbs was 1 to 6%.
